Experimental data taken from publication PMC9881170.

Columns and labels:
[1] = target: 55S mitoribosome, subunits crosslinked;mtIF2 (Homo sapiens (HEK293S TetR GnTI-);Homo sapiens) (UniProt P46199); assay: sucrose gradient co-sedimentation, Cy3 fluorescence; settings: + E. coli fMet-tRNAfMet; no mtIF3; 200 nM 55S or 28S, 240 nM mtIF2, 240 nM mtIF3, 240 nM fMet-tRNAfMet, 400 nM mRNA; 37 C 30 min (then ice 15 min for mRNA binding); filter wash with 20 mM Mg2+ …
[2] = target: 55S mitoribosome (re-associated);mtIF2;mtIF3 (Homo sapiens (HEK293S TetR GnTI-);Homo sapiens;Homo sapiens) (UniProt P46199+Q9H2K0); assay: as above; settings: + E. coli fMet-tRNAfMet; 200 nM 55S or 28S, 240 nM mtIF2, 240 nM mtIF3, 240 nM fMet-tRNAfMet, 400 nM mRNA; 37 C 30 min (then ice 15 min for mRNA binding); filter wash with 20 mM Mg2+ …
[3] = target: 55S mitoribosome (crude);mtIF2;mtIF3 (bovine (liver);Homo sapiens;Homo sapiens) (UniProt P46199+Q9H2K0); assay: co-sedimentation; settings: 200 nM 55S or 28S, 240 nM mtIF2, 240 nM mtIF3, 240 nM fMet-tRNAfMet, 400 nM mRNA, 37 C 30 min (then ice 15 min for mRNA binding), filter wash with 20 mM Mg2+ …

UniProt P46199, sequence (P46199 whole entry, looked up, tested part not stated): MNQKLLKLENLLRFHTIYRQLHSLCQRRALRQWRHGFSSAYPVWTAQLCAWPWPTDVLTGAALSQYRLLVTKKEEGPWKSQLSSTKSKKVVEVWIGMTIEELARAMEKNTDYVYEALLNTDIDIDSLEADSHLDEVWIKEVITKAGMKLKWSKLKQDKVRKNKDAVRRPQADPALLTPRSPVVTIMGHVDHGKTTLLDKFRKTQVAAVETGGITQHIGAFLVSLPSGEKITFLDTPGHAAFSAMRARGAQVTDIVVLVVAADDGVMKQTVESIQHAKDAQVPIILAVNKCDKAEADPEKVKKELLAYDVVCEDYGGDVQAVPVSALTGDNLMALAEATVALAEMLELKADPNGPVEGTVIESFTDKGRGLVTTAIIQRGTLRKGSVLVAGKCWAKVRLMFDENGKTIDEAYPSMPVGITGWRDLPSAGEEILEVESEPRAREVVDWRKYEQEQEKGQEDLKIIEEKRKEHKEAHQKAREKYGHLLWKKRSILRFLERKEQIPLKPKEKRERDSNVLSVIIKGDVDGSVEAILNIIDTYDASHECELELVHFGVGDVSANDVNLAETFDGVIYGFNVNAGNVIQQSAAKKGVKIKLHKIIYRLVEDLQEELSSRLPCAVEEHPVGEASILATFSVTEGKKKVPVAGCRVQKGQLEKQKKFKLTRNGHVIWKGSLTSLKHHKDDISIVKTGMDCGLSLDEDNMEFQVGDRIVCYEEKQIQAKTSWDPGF

Substance: AUGGCACAUGCAGCGCAAGUAGGUCUACAA [MTCO2 mRNA first 30 nt]
- binding signal (% of 55S with mRNA bound) [1]: 25
- binding signal (% of 55S with mRNA bound) [2]: 50

Substance: Phe-tRNAPhe
- binding signal (% of 55S with [3H]-Phe-tRNAPhe) ([3]; + EF-Tu, 30-nt leaderless mRNA S2, fMet-tRNAfMet): 22

Substance: fMet-tRNAfMet (35S)
- binding signal (% of 55S with [35S]-fMet-tRNAfMet) ([3]; + 30-nt leaderless mRNA S2, EF-Tu, Phe-tRNAPhe): 27
